How the values were obtained:
[1] = target: T1, hSSB2-OB (NABP1 OB domain) (human, UniProt Q96AH0 1-132); experiment: SPR competition; competes with immobilised biotinylated wild-type ssDNA; value only in figure; 2 mM MgCl2; SPR: 20 mM Tris pH 7.0, 50 mM NaCl, 2 mM MgCl2, 0.01% P20, 2 mM DTT; EMSA: 20 mM Tris pH 7.5, 100 mM NaCl, 1 mM DTT, 100 µg/mL BSA, 37 °C; agarose shift: 10 mM; conditions: protein: recombinant; tags: GST tag (pGEX-6P) removed by HRV3C protease; single strand
[2] = target: T1, hSSB2-OB (NABP1 OB domain); experiment: SPR competition; competes with immobilised biotinylated wild-type ssDNA; 2 mM MgCl2; SPR: 20 mM Tris pH 7.0, 50 mM NaCl, 2 mM MgCl2, 0.01% P20, 2 mM DTT; EMSA: 20 mM Tris pH 7.5, 100 mM NaCl, 1 mM DTT, 100 µg/mL BSA, 37 °C; agarose shift: 10 mM; conditions: protein: recombinant; tags: GST tag (pGEX-6P) removed by HRV3C protease; blunt, central 2-nt mismatch (TT opposite CC; S3 positions 11-12)
[3] = target: T1, hSSB2-OB (NABP1 OB domain); experiment: SPR competition; almost same affinity as undamaged GATTGC; value only in figure; 2 mM MgCl2; SPR: 20 mM Tris pH 7.0, 50 mM NaCl, 2 mM MgCl2, 0.01% P20, 2 mM DTT; EMSA: 20 mM Tris pH 7.5, 100 mM NaCl, 1 mM DTT, 100 µg/mL BSA, 37 °C; agarose shift: 10 mM; conditions: protein: recombinant; tags: GST tag (pGEX-6P) removed by HRV3C protease; single strand
[4] = target: T1, hSSB2-OB (NABP1 OB domain); experiment: EMSA; SPR: 20 mM Tris pH 7.0, 50 mM NaCl, 2 mM MgCl2, 0.01% P20, 2 mM DTT; EMSA: 20 mM Tris pH 7.5, 100 mM NaCl, 1 mM DTT, 100 µg/mL BSA, 37 °C; agarose shift: 10 mM; conditions: protein: recombinant, tags: GST tag (pGEX-6P) removed by HRV3C protease, label: 32P

T1 sequence (Q96AH0 1-132): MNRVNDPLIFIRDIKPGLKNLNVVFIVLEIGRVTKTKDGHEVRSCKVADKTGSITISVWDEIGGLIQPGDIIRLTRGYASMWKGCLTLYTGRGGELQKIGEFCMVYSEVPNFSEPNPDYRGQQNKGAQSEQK

GATTGC (ssDNA) [6mer GATTGC wild-type]: binds [1].

B1: 23mer duplex with 2-nt bubble (dsDNA)
DNA 1: CGAACGATCATTACTAGCTCCAA
DNA 2: TTGGAGCTAGTCCTGATCGTTCG
In the case of B1, the Ki [2] is reported as 1000 nM.

GATTGC (ssDNA, cyclobutane pyrimidine dimer between T3 and T4) [6mer GATTGC with CPD]: binds [3].

CCTCGAGGGATCCGTCCTAGCAAGCCGCTGCTACCGGAAGCTTCTGGACC (ssDNA) [50mer ssDNA (EMSA)]: binds ([4]; single strand).

B2: 50 bp dsDNA (EMSA) (dsDNA)
DNA 1: CCTCGAGGGATCCGTCCTAGCAAGCCGCTGCTACCGGAAGCTTCTGGACC
DNA 2: GGTCCAGAAGCTTCCGGTAGCAGCGGCTTGCTAGGACGGATCCCTCGAGG
B2: no binding ([4]; blunt).
